Data reported in the supplement of paper PMC10899765.

Tests used:
Conditions in all cases: 20 nM; 72 h
[1] = test system: MCF10A; assay: percent viability (nuclei count relative to siNT); higher = more viable cells
Method: (§1)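 After 72 h, cells were fixed and stained with Hoechst and anti-fibrillarin, and nucleoli per nucleus were counted with CellProfiler. Values are plate-adjusted percent effect for the one-nucleolus and 5+ nucleoli phenotypes, normalised to siNT (0%) and to the positive controls siNOL11 or siKIF11 (100%), as the mean of biological triplicates. Percent viability is the nuclei count relative to siNT.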

[2] = test system: MCF10A; assay: one-nucleolus phenotype percent effect (relative to siNT 0% and siNOL11 100%); higher = more cells with one nucleolus (ribosome biogenesis inhibition)
Method: as §1

[3] = test system: MCF10A; assay: 5+ nucleoli phenotype percent effect (relative to siNT 0% and siKIF11 100%); higher = more cells with five or more nucleoli
Method: as §1

GGUAGUGAGUUAUCAGCUAC [hsa-miR-6073]
percent viability [1]: 71% | one-nucleolus phenotype percent effect [2]: 2.63% | 5+ nucleoli phenotype percent effect [3]: 18.3%

UGUAGAGCAGGGAGCAGGAAGCU [hsa-miR-4732-5p]
percent viability [1]: 23.8% | one-nucleolus phenotype percent effect [2]: 6.48% | 5+ nucleoli phenotype percent effect [3]: -0.0062%

AGAAGAUUGCAGAGUAAGUUCC [hsa-miR-4699-5p]
percent viability [1]: 48.2% | one-nucleolus phenotype percent effect [2]: 31.8% | 5+ nucleoli phenotype percent effect [3]: -32.9%

AAUGAGAGACCUGUACUGUAU [hsa-miR-4712-3p]
percent viability [1]: 7.13% | one-nucleolus phenotype percent effect [2]: 34.8% | 5+ nucleoli phenotype percent effect [3]: -22.6%

GAGGUUUUCUGGGUUUCUGUUUC [hsa-miR-329-5p]
percent viability [1]: 56% | one-nucleolus phenotype percent effect [2]: -9.91% | 5+ nucleoli phenotype percent effect [3]: 17.3%

ACCGAAGACUGUGCGCUAAUCU [hsa-miR-4671-5p]
percent viability [1]: 99.3% | one-nucleolus phenotype percent effect [2]: -20.7% | 5+ nucleoli phenotype percent effect [3]: 14.8%

UCCGAACUCUCCAUUCCUCUGC [hsa-miR-6716-3p]
percent viability [1]: 166% | one-nucleolus phenotype percent effect [2]: -19.3% | 5+ nucleoli phenotype percent effect [3]: 35.3%

UGAGGGAGGAGACUGCA [hsa-miR-4419a]
percent viability [1]: 7.9% | one-nucleolus phenotype percent effect [2]: 18.6% | 5+ nucleoli phenotype percent effect [3]: -18.8%

GUGAGGGCAUGCAGGCCUGGAUGGGG [hsa-miR-1226-5p]
percent viability [1]: 114% | one-nucleolus phenotype percent effect [2]: -14.2% | 5+ nucleoli phenotype percent effect [3]: 53.3%

ACCAGGCAAGAAAUAUUGU [hsa-miR-4645-5p]
percent viability [1]: 87.5% | one-nucleolus phenotype percent effect [2]: -4.87% | 5+ nucleoli phenotype percent effect [3]: 5.96%

AAAAACCACAAUUACUUUUGCACCA [hsa-miR-548aa]
percent viability [1]: 16.1% | one-nucleolus phenotype percent effect [2]: 51.2% | 5+ nucleoli phenotype percent effect [3]: -30.9%

UCCCUCCUUCUGUCCCCACAG [hsa-miR-4667-3p]
percent viability [1]: 71.8% | one-nucleolus phenotype percent effect [2]: -2.78% | 5+ nucleoli phenotype percent effect [3]: -12.9%

UGCAAAAGUAAUUGCAGUUUUUG [hsa-miR-548aj-5p]
percent viability [1]: 81.8% | one-nucleolus phenotype percent effect [2]: -16.2% | 5+ nucleoli phenotype percent effect [3]: 4.35%

GAAGGCGCUUCCCUUUAGAGCG [hsa-miR-525-3p]
percent viability [1]: 42.5% | one-nucleolus phenotype percent effect [2]: 37.2% | 5+ nucleoli phenotype percent effect [3]: -16.5%

UCAGCUCCUCUCUACCCACAG [hsa-miR-6736-3p]
percent viability [1]: 37.4% | one-nucleolus phenotype percent effect [2]: 8.25% | 5+ nucleoli phenotype percent effect [3]: -12.2%

AUCUGCUCUCUUGUUCCCAG [hsa-miR-6828-3p]
percent viability [1]: 43.4% | one-nucleolus phenotype percent effect [2]: 2.43% | 5+ nucleoli phenotype percent effect [3]: 10.5%

CUCUAGAGGGAAGCGCUUUCUG [hsa-miR-519c-5p]
percent viability [1]: 31.6% | one-nucleolus phenotype percent effect [2]: 1.39% | 5+ nucleoli phenotype percent effect [3]: -10.6%

AAUGUAGAGAUUGAUCAAAAU [hsa-miR-3668]
percent viability [1]: 86.3% | one-nucleolus phenotype percent effect [2]: 2.57% | 5+ nucleoli phenotype percent effect [3]: 0.392%

CUUCCGCCCCGCCGGGCGUCG [hsa-miR-718]
percent viability [1]: 69% | one-nucleolus phenotype percent effect [2]: -13.8% | 5+ nucleoli phenotype percent effect [3]: 30.6%

AGAACUCUUGCAGUCUUAGAUGU [hsa-miR-4680-5p]
percent viability [1]: 72% | one-nucleolus phenotype percent effect [2]: -11.5% | 5+ nucleoli phenotype percent effect [3]: -12.8%

UCCCCUUCUGCAGGCCUGCUGG [hsa-miR-3127-3p]
percent viability [1]: 144% | one-nucleolus phenotype percent effect [2]: -24.5% | 5+ nucleoli phenotype percent effect [3]: 34.9%

AAGCAGCAGUGGCAAGACUCCU [hsa-miR-6838-5p]
percent viability [1]: 24.7% | one-nucleolus phenotype percent effect [2]: 31.1% | 5+ nucleoli phenotype percent effect [3]: -35.6%

GAACGCCUGUUCUUGCCAGGUGG [hsa-miR-614]
percent viability [1]: 72.8% | one-nucleolus phenotype percent effect [2]: -10.6% | 5+ nucleoli phenotype percent effect [3]: -0.465%

ACAUACUUCUUUAUAUGCCCAU [hsa-miR-1-5p]
percent viability [1]: 47% | one-nucleolus phenotype percent effect [2]: 11.9% | 5+ nucleoli phenotype percent effect [3]: -8.68%

GGGGGGGGGGGGGGGGGGCCG [hsa-miR-1234-5p]
percent viability [1]: 78.1% | one-nucleolus phenotype percent effect [2]: -31.5% | 5+ nucleoli phenotype percent effect [3]: 65.1%

CGAGGGGUAGAAGAGCACAGGGG [hsa-miR-6738-5p]
percent viability [1]: 75.7% | one-nucleolus phenotype percent effect [2]: -8.33% | 5+ nucleoli phenotype percent effect [3]: 26.9%

UGGCCGGAUGGGACAGGAGGCAU [hsa-miR-4743-5p]
percent viability [1]: 25.6% | one-nucleolus phenotype percent effect [2]: 20.6% | 5+ nucleoli phenotype percent effect [3]: -11.6%

UCAAUAGGAAAGAGGUGGGACCU [hsa-miR-6826-5p]
percent viability [1]: 33.3% | one-nucleolus phenotype percent effect [2]: 26.5% | 5+ nucleoli phenotype percent effect [3]: -20.8%

AUCACAUUGCCAGGGAUUUCC [hsa-miR-23a-3p]
percent viability [1]: 126% | one-nucleolus phenotype percent effect [2]: -9.26% | 5+ nucleoli phenotype percent effect [3]: -6.74%

AUGUAUAAAUGUAUACACAC [hsa-miR-568]
percent viability [1]: 178% | one-nucleolus phenotype percent effect [2]: -26.3% | 5+ nucleoli phenotype percent effect [3]: 26.1%

UAUGUAACACGGUCCACUAACC [hsa-miR-411-3p]
percent viability [1]: 76% | one-nucleolus phenotype percent effect [2]: -6.25% | 5+ nucleoli phenotype percent effect [3]: 22.1%

UGAGGUAGUAGUUUGUACAGUU [hsa-let-7g-5p]
percent viability [1]: 21.6% | one-nucleolus phenotype percent effect [2]: -16.7% | 5+ nucleoli phenotype percent effect [3]: 29%

GUAGAUUCUCCUUCUAUGAGUA [hsa-miR-376a-5p]
percent viability [1]: 24.5% | one-nucleolus phenotype percent effect [2]: -7.97% | 5+ nucleoli phenotype percent effect [3]: 11.8%

GUGUGACCACCGUUCCUGCAG [hsa-miR-6808-3p]
percent viability [1]: 27.3% | one-nucleolus phenotype percent effect [2]: 28.3% | 5+ nucleoli phenotype percent effect [3]: -25.4%

UGUGGUAGAUAUAUGCACGAU [hsa-miR-4536-5p]
percent viability [1]: 25.9% | one-nucleolus phenotype percent effect [2]: 26.2% | 5+ nucleoli phenotype percent effect [3]: -25.4%

UGUCCUCUGUUCCUCAG [hsa-miR-6852-3p]
percent viability [1]: 17.2% | one-nucleolus phenotype percent effect [2]: 43.6% | 5+ nucleoli phenotype percent effect [3]: 9.01%

GUGAGGGACUGGGAUUUGUGG [hsa-miR-6834-5p]
percent viability [1]: 81.4% | one-nucleolus phenotype percent effect [2]: -28.7% | 5+ nucleoli phenotype percent effect [3]: 23.5%

GCCCGAGAGGAUCCGUCCCUGC [hsa-miR-4740-3p]
percent viability [1]: 65.9% | one-nucleolus phenotype percent effect [2]: -18.2% | 5+ nucleoli phenotype percent effect [3]: 17.8%

GUCCACUUCUGCCUGCCCUGCC [hsa-miR-4436b-5p]
percent viability [1]: 51.1% | one-nucleolus phenotype percent effect [2]: -10.1% | 5+ nucleoli phenotype percent effect [3]: -0.992%

UCCCUUCUUCCUGGGCCCUCA [hsa-miR-5088-3p]
percent viability [1]: 59.2% | one-nucleolus phenotype percent effect [2]: -36.6% | 5+ nucleoli phenotype percent effect [3]: 70.3%

CAGUGAUUUGAGGAUUAUUGC [hsa-miR-8062]
percent viability [1]: 63.9% | one-nucleolus phenotype percent effect [2]: 7.28% | 5+ nucleoli phenotype percent effect [3]: -26.5%

GCUACUUCACAACACCAGGGCC [hsa-miR-138-1-3p]
percent viability [1]: 112% | one-nucleolus phenotype percent effect [2]: -15.7% | 5+ nucleoli phenotype percent effect [3]: 30.5%

GCUAUUUCACGACACCAGGGUU [hsa-miR-138-2-3p]
percent viability [1]: 43.1% | one-nucleolus phenotype percent effect [2]: 4.26% | 5+ nucleoli phenotype percent effect [3]: -22.8%

AAAAGUAAUUGUGGUUUUUGC [hsa-miR-548ay-5p]
percent viability [1]: 134% | one-nucleolus phenotype percent effect [2]: -28.5% | 5+ nucleoli phenotype percent effect [3]: 28.7%
